Test results from the supplement of paper PMC7125110.
± gives the standard error. Variants at the floor of the assay were thinned out.

B1: glmS ribozyme (parent)
chain: AUAAAAGCGCCAGAACUACAGAAAUGUAGUUGACGAGGAGGAGGUUUAUCGAAUUUUCGGCGGAUGCCUCCAAA

Variants of: B1
Test: self-cleavage kobs at 2500 uM GlcN6P; higher = faster cleavage; RNA array
Conditions: with glucosamine-6-phosphate
In short: (§1)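 The measurements used barcoded ribozyme variants on sequenced MiSeq chips, transcribed in situ by E. coli RNA polymerase and tracked at 37 °C with a hybridised Cy3 probe. Glucosamine-6-phosphate, 40 μM to 10 mM in HEPES/KCl/Mg(OAc)2 buffer, was flowed in while tiles were imaged over ~14 h. Baseline-normalised signals, also normalised to non-cleaving reference variants, gave per-tile medians that were fit to one- or two-exponential decays for kobs. kcat and KM resulted from weighted Michaelis–Menten fits across concentrations.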

Variant | self-cleavage kobs at 2500 uM GlcN6P [s⁻¹]
AUAAAAGCGCCAGAAAUACAGAAAUGUACUUGACGAGGAGGAGGCUUAUCGAAUUUUCGGCGGAUGCCUCCAAA [C16A G29C U45C] | 0.000155 ± 3.5e-05
AUAAAAGCGGCAGCACUACAGAAAUGUAGGUGACGAGGAGGAAGUUUAUCGAAUUUUCGGCGGAUGCCUCCAAA [C10G A14C U30G G43A] | < 1e-05
AUAAAAGCGCCAGAACUACAGAAAUGUAGUAGACGAGGGGGAGGUUUAUCGAAUUUUCGGCGGAUGUCUCCAAA [U31A A39G C67U] | 0.00111 ± 0.0004
AUAAAAGCGCUAGAACUAAAGAAAUGUAGUUGACGAGGAGGAGGUUUAUCGAAUUUUCGGCGGAUGCCUCCAAA [C11U C19A] | 0.000235 ± 0.0001
AUAAAAGCGCCAGAACUACAGAAAUGUAGUGAACGAGGAGGAGGUUUAUCGAAUUUUCGGCGGGUGCCUCCAAA [U31G G32A A64G] | 0.000581 ± 0.00022
AUAAAAGCGCCAGAACUACAGAAAUGUAGUUGACGAAGAGGACGUUUAUCGAAUUUUGGGCGGAUGCCUCCAAA [G37A G43C C58G] | < 1e-05
AUAAAAUCGCCAGAACUACAGAAAUGUAGUUGACGAGGAGGAGGUUUAUCGAAUUUUCGGCGGGUACCUCCAAA [G7U A64G G66A] | < 1e-05
AUAAAAGCGCCUGAACUACAGAAAUGUAGUUAACUAGGAGGAGGUUUAACGAAUUUUCGGGGGACACCUCCAAA [A12U G32A G35U U49A C61G U65C G66A] | < 1e-05
AUAAAAGCGCCAGAACUACAGAAAUGUAGAUGACGAGGAAGAGGUUUAUCGAAUUUUCGGCGGAUGCCUCAAAA [U30A G40A C71A] | 0.00142 ± 0.0005
AUAAAAGCGCCAGAACUACAGAAAUGUAGUUGACGAGGAGGAGGAUAAUCGAAUUUUCUGAGGAUGCCUCCAAA [U45A U47A G59U C61A] | < 1e-05
AUAAAAGCGCCACAACUACAGAAAUGUAGUUGACGAGGAGGUCGUUUAUCCAAUUUGCGGCGGGUGCCUCUAAA [G13C A42U G43C G51C U57G A64G C71U] | < 1e-05
AUAAAACCGCCAGAACUACAGAAAUGUAGUUGAAGAGGAGGAGGUGUAUCGAAUUUUCGGCGCAUGCCUCCAAA [G7C C34A U46G G63C] | < 1e-05
AUAAAAGCGCCAGAACUACAGAAAUGUAGUUGACGAGGAGGAGUUGUAUCGAAUUUUCGGCGGAUGCCUUGAAA [G44U U46G C70U C71G] | < 1e-05
AUAAAAGCGCCAGAACUACAGAAAUGUAGUUGAAGUGGAGGAGGUUUAUCGGAUUUUCGGCGGAUGCCUCCAAA [C34A A36U A52G] | < 1e-05
AUAAAAGCCCCAGAACUACAGAAAUGUAGUUGACGAGGAGGAGGUUUAUCGUAUUUUUGGCGGAUGCCUCCAAA [G9C A52U C58U] | < 1e-05
AUAAAAGCGCCAGAACUACAGAAAUGUAGUCGACGAGGAGGAGGUUUAUCGAAUUCUCGGCGGAUGCCUGCAAA [U31C U56C C70G] | < 1e-05
AUAAAAGGGUCAGAACUACAGAAAUGUAGUUGACGAUGAGGCGGUUUAUCGAAGUUUCGGCGGGUGCCUGCAAA [C8G C10U G37U A42C U54G A64G C70G] | < 1e-05

Variant | self-cleavage kobs at 2500 uM GlcN6P [s⁻¹]
AUAAAAGCGCCAGAACUACAGAAAUGUAGUUGAAGAGGAGGAGGUUCAUCGAUUUUUCGGCGGAUGCCUCCAAA [C34A U47C A53U] | < 1e-05
AUAAAAGUGCCAGAACUACAGAAAUGUAGUUGACGAGAAGGAGGUUUAUCGAAUUUUCGGCGGAUGCCUACAAA [C8U G38A C70A] | < 1e-05
AUAAAAGCGCCAGAACUACAGAAAUGUAGUUGACGAGGACGAGGUUUAUCGAAGUUUCGGCGGAUGCCUUCAAA [G40C U54G C70U] | 0.000933 ± 0.00021
AUAAAAGCGCCAGAACUACAGAAAUGUAGUUGGCGAGGAGGAGGUUGAUCGAAUUUUCGGCGGAUACCUCCAAA [A33G U47G G66A] | < 1e-05
AUAAAAGCGCCAGAACUACAGAAAUGUAUUUGACGAGGAGGAGGUUUAUCGAAUUUACGGCGGAUGCCUCCAAA [G29U U57A] | 4.22e-05 ± 1.5e-05
AUAAAAGCGCCAGAACUACAGAAAUGUAGUUGACGAGGAGUAGGUUUAUGGAAUUUCUGGCGGAUGCCUUCAAA [G41U C50G U57C C58U C70U] | < 1e-05
AUAAAAGCGCUAGAACUACAGAAAUGUAGUUCACGAGGAGGAGGUUUAUGGAAUUUUCGGGGGAUGCCUCCAAA [C11U G32C C50G C61G] | 0.000267 ± 7.4e-05
AUAAAAGCGCCAGAACUACAGAAAUGUAAUUGACGAGGAGAAGGUUUAUCGAAUUUUCGGCGGAUGCCUCCAAA [G29A G41A] | 6.8e-05 ± 2e-05
AUAAAAGCGCCAGAACUACAGAAAUGUAGUUGCCGAGGAGGAGGUUUACCGAAUUUUCGGCGGAUGCCUUCAAA [A33C U49C C70U] | < 1e-05
AUAAAAGCUUCAGAACUACAGAAAUGUAGUUGACGAGGAGGAGGUUUAUCGAAUUUUCGGCGGAUGUCUCCAAA [G9U C10U C67U] | < 1e-05
AUAAAAGCGCCAGAACUACAGAAAUGUAGUUGACGUGGAGGAGGUUUAUCGAAUUUUCGGCGGAUGCCGCAAAA [A36U U69G C71A] | 0.000556 ± 0.00021
AUAAAAGCGCCAGAACUACAGAAAUGUAGUUGACGAGGAGGAGGUUUAUCGAAUUUUCUGCCGAUGCCUCAAAA [G59U G62C C71A] | < 1e-05
AUAAAAGCGCGCGAACUACAGAAAUGUAGUUGACGAGGAGGAGGUUUCUCGAAUUUUCGGCGGAUGCCUCCAAA [C11G A12C A48C] | < 1e-05
AUAAAUGCGCUAGAACUACAGAAAUGUAGUUGACGAGGAGGAGGUUUAUCGAAUUUGGGGAGGAUGCUUUCAAA [A6U C11U U57G C58G C61A C68U C70U] | 0.000618 ± 0.00019
AUAAAAGCGCCAGAACUACAGAAAUGUAGUUGACGAGGGGGAGGAUUAUCGAAUUUUCGGCGGUUGCCUCCAAA [A39G U45A A64U] | 0.000381 ± 0.00012
AUAAAGGCGCCAGCACUACAGAAAUGUAGUUGACGAGGAGGAGGUUUAUCGAGUUUUCGGCGGAUGCCUCCAAA [A6G A14C A53G] | 6.89e-05 ± 1.6e-05

Variants of: B1
Test: self-cleavage kobs at 10000 uM GlcN6P; higher = faster cleavage; RNA array
Conditions: with glucosamine-6-phosphate
In short: as §1

Variant | self-cleavage kobs at 10000 uM GlcN6P [s⁻¹]
AUAAAAGCGCCAGAACUACAGAAAUGUAGUGAACGAGGAGGAGGUUUAUCGAAUUUUCGGCGGGUGCCUCCAAA [U31G G32A A64G] | 0.00106 ± 0.00026
AUAAAAGCGCCAGAACUACAGAAAUGUAAUUGACGAGGAGAAGGUUUAUCGAAUUUUCGGCGGAUGCCUCCAAA [G29A G41A] | 5.78e-05 ± 1.5e-05
AUAAAAGCGCCAGAACUACAGAAAUGUAGUUGACGUGGAGGAGGUUUAUCGAAUUUUCGGCGGAUGCCGCAAAA [A36U U69G C71A] | 5.84e-05 ± 1.8e-05
AUAAAAGCGCCAGAACUACAGAAAUGUAGUUGACGAGGGGGAGGAUUAUCGAAUUUUCGGCGGUUGCCUCCAAA [A39G U45A A64U] | 0.000499 ± 0.00011
